Target: reconstituted nucleosome (Xenopus laevis histone octamer on Widom 601 DNA) (Xenopus laevis)
Experiment: fluorescence polarisation

B1: E2F1-DP2 DNA binding domains heterodimer (complex)
chain 1: not shown
chain 2: KNGKGLRHFSMKVCEKVQRKGTTSYNEVADELVSEFTNSNNHLAADSAYDQKNIRRRVYDALNVLMAMNIISKEKKEIKWIG
B1 showed a Kd of 120 ± 10 nM.
